In article PMC4841471 (Nature, 2015):

Molecular target: the molecule itself
Test: crystal structure

B1: Two-pore channel TPC1 from Arabidopsis thaliana (AtTPC1) (natural protein, UniProt Q94KI8 1-733, looked up)
chain: MEDPLIGRDSLGGGGTDRVRRSEAITHGTPFQKAAALVDLAEDGIGLPVEILDQSSFGESARYYFIFTRLDLIWSLNYFALLFLNFFEQPLWCEKNPKPSCKDRDYYYLGELPYLTNAESIIYEVITLAILLVHTFFPISYEGSRIFWTSRLNLVKVACVVILFVDVLVDFLYLSPLAFDFLPFRIAPYVRVIIFILSIRELRDTLVLLSGMLGTYLNILALWMLFLLFASWIAFVMFEDTQQGLTVFTSYGATLYQMFILFTTSNNPDVWIPAYKSSRWSSVFFVLYVLIGVYFVTNLILAVVYDSFKEQLAKQVSGMDQMKRRMLEKAFGLIDSDKNGEIDKNQCIKLFEQLTNYRTLPKISKEEFGLIFDELDDTRDFKINKDEFADLCQAIALRFQKEEVPSLFEHFPQIYHSALSQQLRAFVRSPNFGYAISFILIINFIAVVVETTLDIEESSAQKPWQVAEFVFGWIYVLEMALKIYTYGFENYWREGANRFDFLVTWVIVIGETATFITPDENTFFSNGEWIRYLLLARMLRLIRLLMNVQRYRAFIATFITLIPSLMPYLGTIFCVLCIYCSIGVQVFGGLVNAGNKKLFETELAEDDYLLFNFNDYPNGMVTLFNLLVMGNWQVWMESYKDLTGTWWSITYFVSFYVITILLLLNLVVAFVLEAFFTELDLEEEEKCQGQDSQEKRNRRRSAGSKSRSQRVDTLLHHMLGDELSKPECSTSDT
- stoichiometry N: 2
